Assay results reported in patent US11414648B2, “Methods and compositions for production of fallopian tube epithelium” (CEDARS-SINAI MEDICAL CENTER, priority 2017, dated 2022).

What was measured:
Assay type in all cases: cell-based
human iPSCs [1] = test: Differentiation of human iPSCs into mesoderm (qPCR/immunocytochemistry of MIXL1, BRACHYURY); conditions: 100 ng/ml activin A and 3 μM CHIR99021 used together; iPSC line 87iCTR-n3; peak at day 2
Experimental: Human iPSCs were split onto Matrigel-coated plates, and cultured in mTeSR®1 medium until 80% confluent. Three intermediate protocols were compared, according to Mae et al. (2013), Xia et al. (2013), and Takasato et al. (2014). […]
Total cellular RNA was isolated using Qiagen RNeasy Mini kit according to the manufacturer's recommendations (Qiagen). Of RNeasy-treated total RNA (1 μg) was used for cDNA synthesis using the Quantitect Reverse Transcription Kit for cDNA synthesis for PCR (Qiagen). […]

human iPSCs [2] = test: Differentiation of mesoderm into intermediate mesoderm (IM) (marker expression); conditions: for transient upregulation of BRACHYURY and MIXL1 seen during gastrulation: BMP4 vs BMP7 treatment, 87iCTR-n3 iPSC line
Experimental: (§1) Human iPSCs were split onto Matrigel-coated plates, and cultured in mTeSR®1 medium until 80% confluent. Three intermediate protocols were compared, according to Mae et al. (2013), Xia et al. (2013), and Takasato et al. (2014). The final protocol that achieved best efficiency and results for creating fallopian tube epithelium was a modified Mae et. al., (2013) protocol, as defined below. • Day 0-2: Cells were exposed to 100 ng/ml human recombinant activin A (Stemgent) and 3 μM CHIR99021 (Cayman Chemicals) to differentiate towards mesoderm, and cultured in DMEM/F12 (Gibco)+Glutamax (Invitrogen) supplemented with 500 U/ml penicillin streptomycin (Gibco) and 2% fetal bovine serum (FBS) with addition of 10 μM ROCK inhibitor Y-27632 (Stemgent). • Day 2-4: To differentiate towards IM, media was changed to DMEM/F12 (Gibco)+Glutamax (Invitrogen) supplemented with 0.1 mM non-essential amino acids (Invitrogen), 500 u/ml penicillin/streptomycin (Gibco), 0.55 mM 2-mercaptoethanol, 10% KOSR (Invitrogen), 100 ng/ml BMP4 (R&D Systems), 3 μM CHIR99021 (Cayman Chemicals), and 10 μM ROCK inhibitor Y-27632 (Stemgent). • Day 4-6: Spheroids were collected from wells and re-plated per methods described below. To differentiate the spheroid cultures towards Müllerian epithelium, media was changed to Fallopian tube media (FTM) containing DMEM/F12 (Gibco)+500 u/ml penicillin/streptomycin (Gibco), and 10 ml reconstituted Ultroser G (15950-017, Pall) and 10 μM ROCK inhibitor Y-27632 (Stemgent). To the FTM, 100 ng/ml human recombinant WNT4 (R&D Systems) with or without 3 μM CHIR99021(Cayman Chemicals), 100 ng/ml human recombinant WNT3A (R&D Systems) with or without 3 μM CHIR99021 (Cayman Chemicals) were added. • Day 6-8: FTM was changed and 20 ng/ml human recombinant Follistatin (Peprotech), 1 ng/ml estrogen and 33 ng/ml progestrone were added.
(§2) Total cellular RNA was isolated using Qiagen RNeasy Mini kit according to the manufacturer's recommendations (Qiagen). Of RNeasy-treated total RNA (1 μg) was used for cDNA synthesis using the Quantitect Reverse Transcription Kit for cDNA synthesis for PCR (Qiagen). Real-time PCR was performed using the SYBR Green Supermix (BioRad). The levels of expression of respective genes were normalized to corresponding GAPDH values and are shown as fold change relative to the value of the control sample. All sample analyses were carried out in triplicate.
(§3) Monolayer cultures were grown on poly-1-lysine and ornithine coated glass coverslips. Cells were washed once with phosphate buffered saline (PBS) and fixed with 4% paraformaldehyde (PFA) in 1× PBS for 20 minutes and permeabilized in PBS containing 0.5% Triton X-100 (PBS-T) (Sigma) for 5 minutes at room temperature. […]

[3] = tested on: intermediate mesoderm (IM) cells derived from human iPSCs; test: Differentiation of intermediate mesoderm into Müllerian duct / FTE precursor vs nephric duct (marker expression); conditions: for expression of kidney markers SIX2 and FOXD1: qPCR, relative to iPSC day 0, 87iCTR-n3
Experimental: as §1, §2, §3

Q: For `Cc1c[nH]c(-c2cnc(NCCNc3ccc(C#N)cn3)nc2-c2ccc(Cl)cc2Cl)n1` [CHIR99021, reference compound], which “mesoderm induction (MIXL1 and BRACHYURY)” value (human iPSCs [1]) is on record?
A: rapidly and efficiently specified human iPSCs (line 87iCTR-n3) into mesoderm

B1: BMP4: BMP4 growth factor (R&D Systems) (protein, UniProt P12644 293-408, looked up)
Bone morphogenetic protein 4: SPKHHSQRARKKNKNCRRHSLYVDFSDVGWNDWIVAPPGYQAFYCHGDCPFPLADHLNSTNHAIVQTLVNSVNSSIPKACCVPTELSAISMLYLDEYDKVVLKNYQEMVVEGCGCR
Q: What does the source list for B1?
A: mesoderm differentiation into IM, based on expression of early IM markers PAX2, OSR1 and GATA3 (human iPSCs [2]; 100 ng/ml, day 2-4, compared with BMP7 of Mae et al protocol): optimal mesoderm differentiation into IM; transient upregulation of BRACHYURY and MIXL1 seen during gastrulation (human iPSCs [2]): expected transient upregulation; expression of endoderm-marker SOX17 and ectoderm-marker NCAM (human iPSCs [2]; differentiation protocol that included BMP4, 87iCTR-n3): no to very low detectable expression levels

B2: BMP7: Bone Morphogenetic Protein used in the Mae et al (2013) protocol (protein, UniProt P18075 293-431, looked up)
Bone morphogenetic protein 7: STGSKQRSQNRSKTPKNQEALRMANVAENSSSDQRQACKKHELYVSFRDLGWQDWIIAPEGYAAYYCEGECAFPLNSYMNATNHAIVQTLVHFINPETVPKPCCAPTQLNAISVLYFDDSSNVILKKYRNMVVRACGCH
Q: With B2 as the molecule, how does the “transient upregulation of BRACHYURY and MIXL1 seen during gastrulation” value (human iPSCs [2]) read?
A: not recapitulated

B3: WNT3A: human recombinant WNT3A (R&D Systems) (protein, UniProt P56704 19-352, looked up)
Protein Wnt-3a: SYPIWWSLAVGPQYSSLGSQPILCASIPGLVPKQLRFCRNYVEIMPSVAEGIKIGIQECQHQFRGRRWNCTTVHDSLAIFGPVLDKATRESAFVHAIASAGVAFAVTRSCAEGTAAICGCSSRHQGSPGKGWKWGGCSEDIEFGGMVSREFADARENRPDARSAMNRHNNEAGRQAIASHMHLKCKCHGLSGSCEVKTCWWSQPDFRAIGDFLKDKYDSASEMVVEKHRESRGWVETLRPRYTYFKVPTERDLVYYEASPNFCEPNPETGSFGTRDRTCNVSSHGIDGCDLLCCGRGHNARAERRREKCRCVFHWCCYVSCQECTRVYDVHTCK
Q: Which “decreased levels of WT1 and OVGP1 compared to WNT4 treatment” value ([3]; WNT3A treatment (nephric duct differentiation) vs WNT4) does the source give for B3 here?
A: ~10 fold

Q: And the “expression of kidney markers SIX2 and FOXD1” value [3]?
A: increased expression

B4: WNT4: human recombinant WNT4 (R&D Systems) (protein, UniProt P56705 23-351, looked up)
Protein Wnt-4: SNWLYLAKLSSVGSISEEETCEKLKGLIQRQVQMCKRNLEVMDSVRRGAQLAIEECQYQFRNRRWNCSTLDSLPVFGKVVTQGTREAAFVYAISSAGVAFAVTRACSSGELEKCGCDRTVHGVSPQGFQWSGCSDNIAYGVAFSQSFVDVRERSKGASSSRALMNLHNNEAGRKAILTHMRVECKCHGVSGSCEVKTCWRAVPPFRQVGHALKEKFDGATEVEPRRVGSSRALVPRNAQFKPHTDEDLVYLEPSPDFCEQDMRSGVLGTRGRTCNKTSKAIDGCELLCCGRGFHTAQVELAERCSCKFHWCCFVKCRQCQRLVELHTCR
Q: Which results are given for B4?
A: expression of fallopian tube precursor (Müllerian duct) markers WT1 and OVGP1 ([3]; qPCR and immunocytochemistry, 100 ng/ml WNT4 on day 4 followed by 20 ng/ml Follistatin on day 6, WNT4/CHIR compared to WNT4 alone): upregulated expression over time; expression of kidney markers SIX2 and FOXD1 [3]: lack of expression

B5: activin A: human recombinant activin A (Stemgent), growth factor (protein, UniProt P08476 311-426, looked up)
Inhibin beta A chain: GLECDGKVNICCKKQFFVSFKDIGWNDWIIAPSGYHANYCEGECPSHIAGTSGSSLSFHSTVINHYRMRGHSPFANLKSCCVPTKLRPMSMLYYDDGQNIIKKDIQNMIVEECGCS
modifications: Inhibin beta A chain activin A homodimer
Q: For B5, which “mesoderm induction (MIXL1 and BRACHYURY)” value (human iPSCs [1]) is on record?
A: rapidly and efficiently specified human iPSCs (line 87iCTR-n3) into mesoderm
